Source: patent publication US20240209106A1 (BEIGENE SWITZERLAND, published 2024)
Residue numbers refer to the chain shown, from its start. Numbers in names are those of the source. Read-outs that look alike come from different tables or passages of the source.

Tests used:
human CD137 ECD-mIgG2a [1] = biological target: human CD137 ECD-mIgG2a (human); experiment: SPR, human CD137 ECD-mIgG2a
[2] = biological target: T1, full-length human CD137 (huCD137) (human, UniProt Q07011 24-255); experiment: flow cytometry on Hut78/huCD137 cells
T1 construct: On transduced Hut78 cells (Hut78/huCD137), transiently on HEK293 cells, or natively on PBMC/T cells; also called TNFRSF9; 4-1BB
T1 sequence (Q07011 24-255 limits assumed): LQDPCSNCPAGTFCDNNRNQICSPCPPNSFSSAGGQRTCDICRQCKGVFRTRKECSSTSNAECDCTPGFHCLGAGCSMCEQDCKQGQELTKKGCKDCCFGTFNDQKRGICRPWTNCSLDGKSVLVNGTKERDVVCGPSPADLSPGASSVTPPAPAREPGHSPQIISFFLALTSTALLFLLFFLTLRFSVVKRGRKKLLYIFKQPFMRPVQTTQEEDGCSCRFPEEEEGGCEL

human CD137 ECD-mIgG2a [3] = biological target: human CD137 ECD-mIgG2a (human); experiment: SPR, antibody captured on anti-human Fc surface; analyte taken as human CD137 ECD-mIgG2a
human CEA on cells [4] = biological target: T2, human CEA on cells (human, UniProt P06731 35-685); experiment: flow cytometry on CT26/CEA cells
T2 construct: whole, on cells; also called CT26/CEA; MKN45
T2 sequence (looked up): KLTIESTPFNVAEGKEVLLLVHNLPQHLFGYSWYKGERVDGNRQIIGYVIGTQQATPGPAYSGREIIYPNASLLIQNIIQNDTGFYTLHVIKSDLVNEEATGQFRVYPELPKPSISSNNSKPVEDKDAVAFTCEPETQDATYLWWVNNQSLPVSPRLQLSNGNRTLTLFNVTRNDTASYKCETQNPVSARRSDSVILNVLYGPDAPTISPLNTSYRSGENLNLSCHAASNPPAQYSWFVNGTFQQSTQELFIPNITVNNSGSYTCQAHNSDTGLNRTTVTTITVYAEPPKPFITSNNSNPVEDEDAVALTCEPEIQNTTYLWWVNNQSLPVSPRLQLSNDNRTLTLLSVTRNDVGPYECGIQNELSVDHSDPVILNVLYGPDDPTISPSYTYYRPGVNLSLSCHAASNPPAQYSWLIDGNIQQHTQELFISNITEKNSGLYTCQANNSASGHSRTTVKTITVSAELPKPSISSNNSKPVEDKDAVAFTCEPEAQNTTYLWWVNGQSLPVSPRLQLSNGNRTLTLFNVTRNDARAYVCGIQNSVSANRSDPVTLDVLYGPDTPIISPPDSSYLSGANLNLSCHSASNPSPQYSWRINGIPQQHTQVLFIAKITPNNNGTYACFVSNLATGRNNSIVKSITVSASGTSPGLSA

[5] = biological target: T1, full-length human CD137 (huCD137); experiment: flow cytometry on Hut78/huCD137 cells; remark: listed apart in the source
human CD137 ECD-mIgG2a [6] = biological target: human CD137 ECD-mIgG2a (human); experiment: SPR (BIAcore T-200): antibody captured on anti-human IgG (Fc) CM5 chip, human CD137 ECD-mIgG2a as analyte, 1:1 Langmuir fit
Procedure: Characterization of anti-huCD137 VH domain antibodies were made by SPR assays using BIAcore™ T-200 (GE Life Sciences). Briefly, anti-human IgG (Fc) antibody was immobilized on an activated CM5 biosensor chip (Cat.: BR100839, GE Life Sciences). Anti-huCD137 domain antibodies were flowed over the chip surface and captured by anti-human IgG (Fc) antibody. […] The equilibrium dissociation constant (KD) was calculated as the ratio koff/kₒₙ.

[7] = biological target: T1, full-length human CD137 (huCD137); experiment: flow cytometry on Hut78/huCD137 cells; remark: listed apart in the source
Source text: (§1) Cell fluorescence was quantified using a flow cytometer (Guava easyCyte™ 8HT, Merck-Millipore, USA).

human CEA on cells [8] = biological target: T2, human CEA on cells; experiment: flow cytometry on CT26/CEA cells; remark: listed apart in the source
Source text: as §1

[9] = biological target: T1, full-length human CD137 (huCD137); experiment: cell-based or functional assay
human CD137 ECD-mIgG2a [10] = biological target: human CD137 ECD-mIgG2a (human); experiment: SPR, multispecific antibody captured on anti-human IgG Fc chip, human CD137 ECD-mIgG2a flowed over
Procedure: Briefly, anti-human IgG (Fc) antibody was immobilized on an activated CM5 biosensor chip (Cat.: BR100839, GE Life Sciences). Anti-huCD137 monoclonal antibodies or multispecific antibodies were flown through the chip surface and captured by anti-human IgG (Fc) antibody. […] The equilibrium dissociation constant (KD)) was calculated as the ratio koff/kₒₙ.

[11] = biological target: T1, full-length human CD137 (huCD137); experiment: cell-based or functional assay; remark: listed apart in the source
human CD137 ECD-mIgG2a [12] = biological target: human CD137 ECD-mIgG2a (human); experiment: ELISA on coated human CD137-ECD-mIgG2a with supernatant containing the CH3 fusion [panel B]

human CD137 ECD-mIgG2a (human), sequence (chain, as listed by the source limits assumed): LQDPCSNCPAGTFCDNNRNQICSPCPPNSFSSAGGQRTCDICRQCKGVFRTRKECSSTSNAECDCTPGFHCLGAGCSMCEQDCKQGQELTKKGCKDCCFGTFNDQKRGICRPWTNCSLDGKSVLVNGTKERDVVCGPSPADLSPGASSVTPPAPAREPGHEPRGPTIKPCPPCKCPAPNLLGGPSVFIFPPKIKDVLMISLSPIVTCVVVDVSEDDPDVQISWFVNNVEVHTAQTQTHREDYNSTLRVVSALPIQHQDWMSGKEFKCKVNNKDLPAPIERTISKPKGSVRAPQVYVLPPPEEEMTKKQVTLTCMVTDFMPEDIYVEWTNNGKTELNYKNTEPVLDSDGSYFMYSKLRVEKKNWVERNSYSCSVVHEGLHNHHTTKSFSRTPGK

B1: A-CD137×CEA (bispecific antibody, human IgG1, kappa)
heavy: QVQLVQSGAEVKKPGASVKVSCKASGYIFTSYYLHWVRQAPGQGLEWIGYINPQTGKTSYAQKFQGRVTMTRDTSTSTVYMELSSLRSEDTAVYYCAREYGNYNYPLDYWGQGTLVTVSSASTKGPSVFPLAPSSKSTSGGTAALGCLVKDYFPEPVTVSWNSGALTSGVHTFPAVLQSSGLYSLSSVVTVPSSSLGTQTYICNVNHKPSNTKVDKKVEPKSCDKTHTCPPCPAPPAAGPSVFLFPPKPKDTLMISRTPEVTCVVVDVSHEDPEVKFNWYVDGVEVHNAKTKPREEQYNSTYRVVSVLTVLHQDWLNGKEYKCKVSNKALAAPIEKTISKAKGQPREPQVYTLPPSREEMTKNQVSLTCLVKGFYPSDIAVEWESNGQPENNYKTTPPVLDSDGSFFLYSKLTVDKSRWQQGNVFSCSVMHEALHNHYTQKSLSLSPGKGGGGSEVQLLESGGGLVQPGGSLRLSCAASGFMLSAEDVGWVRQAPGKGLEWVSAILDFGGSTYYADSVKGRFTISRDNSKNTLYLQMNSLRAEDTAVYYCARVVYHAGGGVTFDYWGQGTLVTVSS
light: DIQMTQSPSSLSASVGDRVTITCRASENQYGYLAWYQQKPGKVPKLLIYNYKNLVEGVPSRFSGSGSGTDFTLTISSLQPEDVATYYCQHHLGTPYTFGQGTKVEIKRTVAAPSVFIFPPSDEQLKSGTASVVCLLNNFYPREAKVQWKVDNALQSGNSQESVTEQDSKDSTYSLSSTLTLSKADYEKHKVYACEVTHQGLSSPVTKSFNRGEC
notes: Symmetric IgG-like; inert Fc; also called Format A
Human CD137 ECD-mIgG2a [1]
  Kd: 360 nM
[2]
  EC50: 0.57 µg/mL
Human CD137 ECD-mIgG2a [3]
  Kd: 360 nM
  koff: 0.00215 s⁻¹
  kon: 5970 M⁻¹ s⁻¹
Human CEA on cells [4]
  EC50: 0.75 µg/mL

B2: D-CD137×CEA (bispecific antibody, human IgG1, kappa)
heavy: EVQLLESGGGLVQPGGSLRLSCAASGFMLSAEDVGWVRQAPGKGLEWVSAILDFGGSTYYADSVKGRFTISRDNSKNTLYLQMNSLRAEDTAVYYCARVVYHAGGGVTFDYWGQGTLVTVSSSGGGGSQVQLVQSGAEVKKPGASVKVSCKASGYIFTSYYLHWVRQAPGQGLEWIGYINPQTGKTSYAQKFQGRVTMTRDTSTSTVYMELSSLRSEDTAVYYCAREYGNYNYPLDYWGQGTLVTVSSASTKGPSVFPLAPSSKSTSGGTAALGCLVKDYFPEPVTVSWNSGALTSGVHTFPAVLQSSGLYSLSSVVTVPSSSLGTQTYICNVNHKPSNTKVDKKVEPKSCDKTHTCPPCPAPPAAGPSVFLFPPKPKDTLMISRTPEVTCVVVDVSHEDPEVKFNWYVDGVEVHNAKTKPREEQYNSTYRVVSVLTVLHQDWLNGKEYKCKVSNKALAAPIEKTISKAKGQPREPQVYTLPPSREEMTKNQVSLTCLVKGFYPSDIAVEWESNGQPENNYKTTPPVLDSDGSFFLYSKLTVDKSRWQQGNVFSCSVMHEALHNHYTQKSLSLSPGK
light: B1 light
notes: Symmetric IgG-like; also called Format D
Human CD137 ECD-mIgG2a [1]
  Kd: 78 nM
[2]
  EC50: 2.28 µg/mL
Human CEA on cells [4]
  EC50: 3.78 µg/mL

B3: A-CD137×CEA-M7 (bispecific antibody, human IgG1, kappa)
heavy: B1 heavy with M482T, S529A, N538S
light: B1 light
[5]
  EC50 (read off the curve): ~0.1 µg/mL
Human CD137 ECD-mIgG2a [3]
  Kd: 266 nM
  koff: 0.003 s⁻¹
  kon: 11300 M⁻¹ s⁻¹

B4: Format A - BGA-9442 (bispecific antibody, human IgG1, kappa)
heavy: B1 heavy with M482T, L483I, F508S, D516E, S529A, N538S, V553Y, Y565L, W566R, L571Q
light: B1 light
notes: Light chain by the description of Format A
Human CD137 ECD-mIgG2a [6]
  Kd: 151 nM
  koff: 0.00604 s⁻¹
  kon: 39900 M⁻¹ s⁻¹
[7]
  EC50: 0.5 µg/mL
Human CEA on cells [8]
  EC50: 0.5 µg/mL
[9]
  Functions EC50(ug/ml), PBMC based cytokine release assay: 0.233 µg/mL
  Functions Top, PBMC based cytokine release assay: 1720
Human CD137 ECD-mIgG2a [10]
  Kd: 164 nM

B5: Format A-BGA-5623 (bispecific antibody, human IgG1, kappa)
heavy: B1 heavy with M482T, L483V, F508K, D516E, S529A, N538S, V553I, Y565T, W566R, L571Q
light: B1 light
notes: Module ratio 2:2, inert Fc
Human CD137 ECD-mIgG2a [6]
  Kd: 111 nM
  koff: 0.0029 s⁻¹
  kon: 26100 M⁻¹ s⁻¹
[11]
  Functional assay EC50 (ug/ml), in vitro CD137 activation (PBMC cytokine release): 0.31 µg/mL
[7]
  EC50: 0.38 µg/mL
[9]
  Functions EC50(ug/ml), PBMC based cytokine release assay: 0.341 µg/mL
  Functions Top, PBMC based cytokine release assay: 2510
Human CD137 ECD-mIgG2a [10]
  Kd: 94.8 nM

B6: Format A - BGA-3386 (bispecific antibody, human IgG1, kappa)
heavy: B1 heavy with M482T, L483V, F508K, D516E, S529A, N538S, V553I, Y565T
light: B1 light
notes: as for B4
Human CD137 ECD-mIgG2a [6]
  Kd: 21.4 nM
  koff: 0.000953 s⁻¹
  kon: 44600 M⁻¹ s⁻¹
[7]
  EC50: 0.21 µg/mL
Human CEA on cells [8]
  EC50: 0.21 µg/mL
[9]
  Functions EC50(ug/ml), PBMC based cytokine release assay: 0.0768 µg/mL
  Functions Top, PBMC based cytokine release assay: 1950
Human CD137 ECD-mIgG2a [10]
  Kd: 21.4 nM

B7: A-CD137×CEA-M8 (bispecific antibody, human IgG1, kappa)
heavy: B1 heavy with F481R, M482T, S529A, N538S
light: B1 light
[5]
  EC50 (read off the curve): ~0.5 µg/mL
Human CD137 ECD-mIgG2a [3]
  Kd: 184 nM
  koff: 0.0534 s⁻¹
  kon: 290000 M⁻¹ s⁻¹

B8: CH3-BGA-4712-M3 (other)
chain: GQPREPQVYTLPPSREEMTKNQVSLTCLVKGFYPSDIAVEWESNGQPENNYKTTPPVLDSDGSFFLYSKLTVDKSRWQQGNVFSCSVMHEALHNHYTQKSLSLSPGKGGGGSEVQLLESGGGLVQPGGSLRLSCAASGFTLSAEDVGWVRQAPGKGLEWVSAILDFGGSTYYAESVKGRFTISRDNAKNTLYLQMSSLRAEDTAVYYCARVVYHAGGGVTFDYWGQGTLVTVSS
notes: Tested as bacterial supernatant; expressed as a dimer of CH3 fusion proteins from the phagemid; also called CH3 fusion of anti-huCD137 VH domain antibody
Human CD137 ECD-mIgG2a [12]
  binding result: binds

B9: CH3-BGA-4712-M3 with W47G mutation in VH region (other)
chain: B8 chain with W159G
notes: built from pieces so that position 47 counts on the VH
Human CD137 ECD-mIgG2a [12]
  binding result: no binding

B10: CH3-BGA-4712-M3 with W47Y mutation in VH region (other)
chain: B8 chain with W159Y
Human CD137 ECD-mIgG2a [12]
  binding result: no binding

B11: CH3-BGA-4712-M3 with W47F mutation in VH region (other)
chain: B8 chain with W159F
Human CD137 ECD-mIgG2a [12]
  binding result: no binding
